# Test results published in the Human Domainome abundance scans (Beltran et al. 2025).
# ± gives the uncertainty stated by the source.
# B1: Ankyrin repeat and SAM domain-containing protein 6, residues 774 to 836; numbered along this chain, Q68DC2 (parent)
# chain: DEDELTGILKKLSLEKYQPIFEEQEVDMEAFLTLTDGDLKELGIKTDGSRQQILAAISELNAG
# Variants of: B1
# Experiment: abundance fitness (aPCA) (normalised: wild type 0, dead -1); higher = more abundant; growth selection in yeast, the domain comes from the species named
# Details: Homo sapiens
row,Variant,abundance fitness
1,DEDELTGILKKLSLEKLQPIFEEQEVDMEAFLTLTDGDLKELGIKTDGSRQQILAAISELNAG,-0.127 ± 0.05
2,DEDELTGILKKLSLEKQQPIFEEQEVDMEAFLTLTDGDLKELGIKTDGSRQQILAAISELNAG,-0.339 ± 0.088
3,DEDELTGILKKLSLEKPQPIFEEQEVDMEAFLTLTDGDLKELGIKTDGSRQQILAAISELNAG,-0.756 ± 0.045
4,DEDELTGILKKLSLEKEQPIFEEQEVDMEAFLTLTDGDLKELGIKTDGSRQQILAAISELNAG,-0.026 ± 0.068
5,DEDELTGILKKLSLEKDQPIFEEQEVDMEAFLTLTDGDLKELGIKTDGSRQQILAAISELNAG,-0.322 ± 0.091
6,DEDELTGILKKLSLEKSQPIFEEQEVDMEAFLTLTDGDLKELGIKTDGSRQQILAAISELNAG,-0.49 ± 0.059
7,DEDELTGILKKLSLEKGQPIFEEQEVDMEAFLTLTDGDLKELGIKTDGSRQQILAAISELNAG,-0.399 ± 0.054
8,DEDELTGILKKLSLEKMQPIFEEQEVDMEAFLTLTDGDLKELGIKTDGSRQQILAAISELNAG,0.031 ± 0.06
9,DEDELTGILKKLSLEKAQPIFEEQEVDMEAFLTLTDGDLKELGIKTDGSRQQILAAISELNAG,-0.561 ± 0.064
10,DEDELTGILKKLSLEKFQPIFEEQEVDMEAFLTLTDGDLKELGIKTDGSRQQILAAISELNAG,-0.045 ± 0.039
11,DEDELTGILKKLSLEKCQPIFEEQEVDMEAFLTLTDGDLKELGIKTDGSRQQILAAISELNAG,-0.255 ± 0.096
12,DEDELTGILKKLSLEKNQPIFEEQEVDMEAFLTLTDGDLKELGIKTDGSRQQILAAISELNAG,-0.344 ± 0.14
13,DEDELTGILKKLSLEKTQPIFEEQEVDMEAFLTLTDGDLKELGIKTDGSRQQILAAISELNAG,-0.509 ± 0.081
14,DEDELTGILKKLSLEKHQPIFEEQEVDMEAFLTLTDGDLKELGIKTDGSRQQILAAISELNAG,-0.505 ± 0.14
15,DEDELTGILKKLSLEKWQPIFEEQEVDMEAFLTLTDGDLKELGIKTDGSRQQILAAISELNAG,-0.043 ± 0.062
16,DEDELTGILKKLSLEKKQPIFEEQEVDMEAFLTLTDGDLKELGIKTDGSRQQILAAISELNAG,-0.426 ± 0.072
17,DEDELTGILKKLSLEKVQPIFEEQEVDMEAFLTLTDGDLKELGIKTDGSRQQILAAISELNAG,-0.355 ± 0.063
18,DEDELTGILKKLSYEKYQPIFEEQEVDMEAFLTLTDGDLKELGIKTDGSRQQILAAISELNAG,-0.97 ± 0.12
19,DEDELTGILKKLSPEKYQPIFEEQEVDMEAFLTLTDGDLKELGIKTDGSRQQILAAISELNAG,-0.845 ± 0.1
20,DEDELTGILKKLSIEKYQPIFEEQEVDMEAFLTLTDGDLKELGIKTDGSRQQILAAISELNAG,-0.332 ± 0.095
21,DEDELTGILKKLSQEKYQPIFEEQEVDMEAFLTLTDGDLKELGIKTDGSRQQILAAISELNAG,-1.17 ± 0.21

row,Variant,abundance fitness
1,DEDELTGILKKLSVEKYQPIFEEQEVDMEAFLTLTDGDLKELGIKTDGSRQQILAAISELNAG,-0.655 ± 0.069
2,DEDELTGILKKLSWEKYQPIFEEQEVDMEAFLTLTDGDLKELGIKTDGSRQQILAAISELNAG,-0.946 ± 0.088
3,DEDELTGILKKLSMEKYQPIFEEQEVDMEAFLTLTDGDLKELGIKTDGSRQQILAAISELNAG,-0.303 ± 0.058
4,DEDELTGILKKLSKEKYQPIFEEQEVDMEAFLTLTDGDLKELGIKTDGSRQQILAAISELNAG,-0.918 ± 0.12
5,DEDELTGILKKLSHEKYQPIFEEQEVDMEAFLTLTDGDLKELGIKTDGSRQQILAAISELNAG,-1.01 ± 0.34
6,DEDELTGILKKLSGEKYQPIFEEQEVDMEAFLTLTDGDLKELGIKTDGSRQQILAAISELNAG,-1.05 ± 0.083
7,DEDELTGILKKLSNEKYQPIFEEQEVDMEAFLTLTDGDLKELGIKTDGSRQQILAAISELNAG,-1.42 ± 0.41
8,DEDELTGILKKLSTEKYQPIFEEQEVDMEAFLTLTDGDLKELGIKTDGSRQQILAAISELNAG,-1.37 ± 0.16
9,DEDELTGILKKLSLLKYQPIFEEQEVDMEAFLTLTDGDLKELGIKTDGSRQQILAAISELNAG,-0.185 ± 0.065
10,DEDELTGILKKLSLIKYQPIFEEQEVDMEAFLTLTDGDLKELGIKTDGSRQQILAAISELNAG,-0.323 ± 0.084
11,DEDELTGILKKLSLQKYQPIFEEQEVDMEAFLTLTDGDLKELGIKTDGSRQQILAAISELNAG,-0.037 ± 0.065
12,DEDELTGILKKLSLRKYQPIFEEQEVDMEAFLTLTDGDLKELGIKTDGSRQQILAAISELNAG,-0.53 ± 0.043
13,DEDELTGILKKLSLDKYQPIFEEQEVDMEAFLTLTDGDLKELGIKTDGSRQQILAAISELNAG,-0.158 ± 0.076
14,DEDELTGILKKLSLVKYQPIFEEQEVDMEAFLTLTDGDLKELGIKTDGSRQQILAAISELNAG,-0.36 ± 0.06
15,DEDELTGILKKLSLSKYQPIFEEQEVDMEAFLTLTDGDLKELGIKTDGSRQQILAAISELNAG,-0.143 ± 0.052
16,DEDELTGILKKLSLKKYQPIFEEQEVDMEAFLTLTDGDLKELGIKTDGSRQQILAAISELNAG,-0.869 ± 0.35
17,DEDELTGILKKLSLCKYQPIFEEQEVDMEAFLTLTDGDLKELGIKTDGSRQQILAAISELNAG,-0.343 ± 0.057
18,DEDELTGILKKLSLWKYQPIFEEQEVDMEAFLTLTDGDLKELGIKTDGSRQQILAAISELNAG,-0.657 ± 0.079
19,DEDELTGILKKLSLTKYQPIFEEQEVDMEAFLTLTDGDLKELGIKTDGSRQQILAAISELNAG,-0.21 ± 0.11
20,DEDELTGILKKLSLPKYQPIFEEQEVDMEAFLTLTDGDLKELGIKTDGSRQQILAAISELNAG,-0.687 ± 0.068
21,DEDELTGILKKLSLGKYQPIFEEQEVDMEAFLTLTDGDLKELGIKTDGSRQQILAAISELNAG,-0.433 ± 0.05
